Laboratory results reported in patent US20250152742A1, “COMPOSITIONS AND METHODS FOR NEUROLOGICAL DISEASES” (Trames Bio, Inc., priority 2022, published 2025).
Numbering of substitutions follows the chain as printed. Names may count otherwise.

Tested on: engineered chimeric receptor SEQ ID NO: 33 and its mutants (human α7-nAChR ligand binding domain / human GlyRα1 ion pore domain) in Lenti-X 293T cells
Experiment: YFP fluorescence quenching anion reporter plate reader assay (percent quench, EC50)
Assay type: cell-based
Conditions: for YFP fluorescence quenching using CNL001 (percent quench): receptor named in row; for YFP fluorescence quenching using Facinicline, 30 nM fac: ligand Facinicline 30 nM; for YFP fluorescence quenching using Facinicline, 300 nM fac: ligand Facinicline 300 nM; for YFP fluorescence quenching using Facinicline, 10 uM fac: ligand Facinicline 10 uM; for YFP fluorescence quenching using Facinicline, 30 uM fac: ligand Facinicline 30 uM; for YFP fluorescence quenching using TC-6987, 1 uM tc6987: ligand TC-6987 1 uM; for YFP fluorescence quenching using TC-6987, 10 uM tc6987: ligand TC-6987 10 uM; for YFP fluorescence quenching using TC-6987, 500 uM tc6987: ligand TC-6987 500 uM
In short: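 Percent quench compares mean YFP signal over the final 10 s with the 15 s baseline before ligand, added in iodide-containing extracellular solution (pH 7.2). Cells were LX293T carrying a YFP anion reporter, transiently transfected with the channel construct; plates were preincubated 30 min at 37 °C.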

[1] = 1 nM CNL001, first column so headed
[2] = 1 nM CNL001, second column so headed
[3] = 1 nM brd (TC-5619/Bradanicline)
[4] = 3 nM brd (TC-5619/Bradanicline)
[5] = 10 nM CNL001, first column so headed
[6] = 10 nM CNL001, second column so headed
[7] = 10 nM brd (TC-5619/Bradanicline)
[8] = 50 nM CNL001, first column so headed
[9] = 50 nM CNL001, second column so headed
[10] = 100 nM CNL001, first column so headed
[11] = 100 nM CNL001, second column so headed
[12] = 100 nM brd (TC-5619/Bradanicline)
[13] = 1 uM CNL001, first column so headed
[14] = 1 uM CNL001, second column so headed
[15] = 1 uM brd (TC-5619/Bradanicline)

B1: CODA534: engineered receptor: L131S, S172D in SEQ ID NO: 33 (protein)
chain: MRCSPGGVWLALAASLLHVSLQGEFQRKLYKELVKNYNPLERPVANDSQPLTVYFSLSLLQIMDVDEKNQVLTTNIWLQMSWTDHYLQWNVSEYPGVKTVRFPDGQIWKPDILLYNSADERFDATFHTNVSVNSSGHCQYLPPGIFKSSCPMDLKNFPMDVQTCKLKFGSWDYGGWSLDLQMQEADISGYIPNGEWDLVGIPGKRSERFYECCKEPYPDVTFTVTMRRRMGYYLIQMYIPSLLIVILSWISFWINMDAAPARVGLGITTVLTMTTQSSGSRASLPKVSYVKAIDIWMAVCLLFVFSALLEYAAVNFVSRQHKELLRFRRKRRHHKSPMLNLFQEDEAGEGRFNFSAYGMGPACLQAKDGISVKGANNSNTTNPPPAPSKSPEEMRKLFIQRAKKIDKISRIGFPMAFLIFNMFYWIIYKIVRREDVHNQ
modifications: synthetic sequence of chimeric LGIC
YFP fluorescence quenching using CNL001 (percent quench) [1]: 23.438% | YFP fluorescence quenching using CNL001 (percent quench) [2]: 28.59% | YFP fluorescence quenching using TC-5619/Bradanicline (percent quench) [3]: −1.13% | YFP fluorescence quenching using TC-5619/Bradanicline (percent quench) [4]: −3.83% | YFP fluorescence quenching using CNL001 (percent quench) [5]: 56.882% | YFP fluorescence quenching using CNL001 (percent quench) [6]: 56.777% | YFP fluorescence quenching using TC-5619/Bradanicline (percent quench) [7]: −3.78% | YFP fluorescence quenching using TC-6683 (percent quench) (30 nM TC-6683): −22.464% | YFP fluorescence quenching using CNL001 (percent quench) [8]: 65.044% | YFP fluorescence quenching using CNL001 (percent quench) [9]: 67.373% | YFP fluorescence quenching using ABT-126 (percent quench) (50 nM abt (ABT-126)): −11.96% | YFP fluorescence quenching using CNL001 (percent quench) [10]: 68.666% | YFP fluorescence quenching using CNL001 (percent quench) [11]: 70.357% | YFP fluorescence quenching (percent quench) (100 nM CNL002): 14.26% | YFP fluorescence quenching using ABT-126 (percent quench) (100 nM abt (ABT-126)): −10.72% | YFP fluorescence quenching using AZD-0328 (percent quench) (100 nM azd0328): −9.32% | YFP fluorescence quenching using TC-5619/Bradanicline (percent quench) [12]: −2.03% | YFP fluorescence quenching using TC-6683 (percent quench) (300 nM TC-6683): −23.976% | YFP fluorescence quenching using ABT-126 (percent quench) (300 nM abt (ABT-126)): 11.65% | YFP fluorescence quenching using AZD-0328 (percent quench) (300 nM azd0328): 4.94% | YFP fluorescence quenching using CNL001 (percent quench) [13]: 73.019% | YFP fluorescence quenching using CNL001 (percent quench) [14]: 73.527% | YFP fluorescence quenching (percent quench) (1 uM CNL002): 45.55% | YFP fluorescence quenching using ABT-126 (percent quench) (1 uM abt (ABT-126)): −3.06% | YFP fluorescence quenching using TC-5619/Bradanicline (percent quench) [15]: 1.68% | YFP fluorescence quenching using TC-6683 (percent quench) (3 uM TC-6683): −24.897% | YFP fluorescence quenching (percent quench) (10 uM ach (acetylcholine)): −11.3% | YFP fluorescence quenching (percent quench) (30 uM CNL002): 64.93% | YFP fluorescence quenching using TC-6683 (percent quench) (30 uM TC-6683): −20.474% | YFP fluorescence quenching using AZD-0328 (percent quench) (30 uM azd0328): 60.61% | YFP fluorescence quenching using TC-6683 (percent quench) (100 uM TC-6683): −22.253% | YFP fluorescence quenching (percent quench) (100 uM ach (acetylcholine)): −27.53% | YFP fluorescence quenching (percent quench) (1 mM ach (acetylcholine)): 2.84% | YFP fluorescence quenching (percent quench) (3 mM ach (acetylcholine)): 14.65% | YFP fluorescence quenching using Facinicline, 30 nM fac: −23.44 | YFP fluorescence quenching using Facinicline, 300 nM fac: 2.75 | YFP fluorescence quenching using Facinicline, 10 uM fac: 69.71 | YFP fluorescence quenching using Facinicline, 30 uM fac: 61.44 | YFP fluorescence quenching using TC-6987, 1 uM tc6987: −20.99 | YFP fluorescence quenching using TC-6987, 10 uM tc6987: −27.62 | YFP fluorescence quenching using TC-6987, 500 uM tc6987: −24.22

B2: CODA535: engineered receptor: L131T, S172D in SEQ ID NO: 33 (protein)
chain: B1 chain with S131T
modifications: synthetic sequence of chimeric LGIC
YFP fluorescence quenching using CNL001 (percent quench) [1]: 8.736% | YFP fluorescence quenching using CNL001 (percent quench) [2]: 24.572% | YFP fluorescence quenching using CNL001 (percent quench) [5]: 60.552% | YFP fluorescence quenching using CNL001 (percent quench) [6]: 63.09% | YFP fluorescence quenching using TC-6683 (percent quench) (30 nM TC-6683): −29.362% | YFP fluorescence quenching using CNL001 (percent quench) [8]: 73.242% | YFP fluorescence quenching using CNL001 (percent quench) [9]: 73.889% | YFP fluorescence quenching using ABT-126 (percent quench) (50 nM abt (ABT-126)): −11.09% | YFP fluorescence quenching using CNL001 (percent quench) [10]: 76.147% | YFP fluorescence quenching using CNL001 (percent quench) [11]: 76.21% | YFP fluorescence quenching (percent quench) (100 nM CNL002): 1.23% | YFP fluorescence quenching using ABT-126 (percent quench) (100 nM abt (ABT-126)): −10.37% | YFP fluorescence quenching using AZD-0328 (percent quench) (100 nM azd0328): −7.02% | YFP fluorescence quenching using TC-6683 (percent quench) (300 nM TC-6683): −28.954% | YFP fluorescence quenching using ABT-126 (percent quench) (300 nM abt (ABT-126)): −4% | YFP fluorescence quenching using AZD-0328 (percent quench) (300 nM azd0328): −0.48% | YFP fluorescence quenching using CNL001 (percent quench) [13]: 78.988% | YFP fluorescence quenching using CNL001 (percent quench) [14]: 78.818% | YFP fluorescence quenching (percent quench) (1 uM CNL002): 35.77% | YFP fluorescence quenching using ABT-126 (percent quench) (1 uM abt (ABT-126)): 4.05% | YFP fluorescence quenching using TC-6683 (percent quench) (3 uM TC-6683): −23.708% | YFP fluorescence quenching (percent quench) (10 uM ach (acetylcholine)): −12.24% | YFP fluorescence quenching (percent quench) (30 uM CNL002): 68.29% | YFP fluorescence quenching using TC-6683 (percent quench) (30 uM TC-6683): −23.431% | YFP fluorescence quenching using AZD-0328 (percent quench) (30 uM azd0328): 70.16% | YFP fluorescence quenching using TC-6683 (percent quench) (100 uM TC-6683): −18.324% | YFP fluorescence quenching (percent quench) (100 uM ach (acetylcholine)): −26.23% | YFP fluorescence quenching (percent quench) (1 mM ach (acetylcholine)): −1.16% | YFP fluorescence quenching (percent quench) (3 mM ach (acetylcholine)): 2.97% | YFP fluorescence quenching using Facinicline, 30 nM fac: −21.36 | YFP fluorescence quenching using Facinicline, 300 nM fac: 4.17 | YFP fluorescence quenching using Facinicline, 30 uM fac: 65.94 | YFP fluorescence quenching using TC-6987, 1 uM tc6987: −21.8 | YFP fluorescence quenching using TC-6987, 10 uM tc6987: −27.08 | YFP fluorescence quenching using TC-6987, 500 uM tc6987: −21.56

B3: CODA805: engineered receptor: Y115D, S170T in SEQ ID NO: 33 (protein)
chain: B1 chain with Y115D, S131L, S170T, D172S
modifications: synthetic sequence of chimeric LGIC
YFP fluorescence quenching using CNL001 (percent quench) [1]: −10.729% | YFP fluorescence quenching using CNL001 (percent quench) [2]: −15.278% | YFP fluorescence quenching using TC-5619/Bradanicline (percent quench) [3]: −9.78% | YFP fluorescence quenching using TC-5619/Bradanicline (percent quench) [4]: −12.06% | YFP fluorescence quenching using CNL001 (percent quench) [5]: −20.403% | YFP fluorescence quenching using CNL001 (percent quench) [6]: −14.905% | YFP fluorescence quenching using TC-5619/Bradanicline (percent quench) [7]: −9.02% | YFP fluorescence quenching using TC-5619/Bradanicline (percent quench) (30 nM brd (TC-5619/Bradanicline)): −16.3% | YFP fluorescence quenching using CNL001 (percent quench) [8]: −14.303% | YFP fluorescence quenching using CNL001 (percent quench) [9]: −15.741% | YFP fluorescence quenching using ABT-126 (percent quench) (50 nM abt (ABT-126)): −11.83% | YFP fluorescence quenching using CNL001 (percent quench) [10]: −12.637% | YFP fluorescence quenching using CNL001 (percent quench) [11]: −10.606% | YFP fluorescence quenching (percent quench) (100 nM CNL002): −18.17% | YFP fluorescence quenching using ABT-126 (percent quench) (100 nM abt (ABT-126)): −11.5% | YFP fluorescence quenching using AZD-0328 (percent quench) (100 nM azd0328): −0.71% | YFP fluorescence quenching using TC-5619/Bradanicline (percent quench) [12]: −7.44% | YFP fluorescence quenching using ABT-126 (percent quench) (300 nM abt (ABT-126)): −8.01% | YFP fluorescence quenching using AZD-0328 (percent quench) (300 nM azd0328): −1.73% | YFP fluorescence quenching using TC-5619/Bradanicline (percent quench) (300 nM brd (TC-5619/Bradanicline)): −10.93% | YFP fluorescence quenching using CNL001 (percent quench) [13]: −13.535% | YFP fluorescence quenching using CNL001 (percent quench) [14]: −11.335% | YFP fluorescence quenching (percent quench) (1 uM CNL002): −15.2% | YFP fluorescence quenching using ABT-126 (percent quench) (1 uM abt (ABT-126)): −9.34% | YFP fluorescence quenching using TC-5619/Bradanicline (percent quench) [15]: −4.55% | YFP fluorescence quenching (percent quench) (10 uM ach (acetylcholine)): −0.46% | YFP fluorescence quenching (percent quench) (30 uM CNL002): −14% | YFP fluorescence quenching using AZD-0328 (percent quench) (30 uM azd0328): 47.39% | YFP fluorescence quenching (percent quench) (100 uM ach (acetylcholine)): −4.93% | YFP fluorescence quenching (percent quench) (1 mM ach (acetylcholine)): −11.18% | YFP fluorescence quenching (percent quench) (3 mM ach (acetylcholine)): −3.53% | YFP fluorescence quenching using Facinicline, 30 nM fac: 38.08 | YFP fluorescence quenching using Facinicline, 100 nM fac (ligand Facinicline 100 nM): −14.37 | YFP fluorescence quenching using Facinicline, 300 nM fac: 19.41 | YFP fluorescence quenching using Facinicline, 10 uM fac: 67.33 | YFP fluorescence quenching using Facinicline, 30 uM fac: 79.67 | YFP fluorescence quenching using TC-6987, 1 uM tc6987: 31.9 | YFP fluorescence quenching using TC-6987, 10 uM tc6987: 25.54 | YFP fluorescence quenching using TC-6987, 500 uM tc6987: 21.13
